In the experiment the target is Recombinant human Src expressed in Sf9 insect cells (purified recombinant full-length Src from Upstate Biotechnology) (human) (UniProt P12931). Description: cell-based or functional assay.

Take “GST-ND1 (amino acid residue 379-435 of pig kidney Na/K-ATPase α1 subunit) (from UniProt P05023 381-439)”: the IC50 of Src inhibition (pY418) is 50 nM.

(Values after patent publication US20110245167A1.)
